In article PMC12350670 (2025):

What was measured:
[1] = target: H4-Fc (anti-FAP VNAR H4 fused to the Fc of human IgG1) (nurse shark (Ginglyomostoma cirratum)); test: BLI
[2] = target: NGS2405-Fc (anti-FAP VNAR NGS2405 fused to the Fc of human IgG1) (nurse shark (Ginglyomostoma cirratum)); test: BLI

B1: recombinant mouse FAP (mFAP) (enzyme)
chain: MKTWLKTVFGVTTLAALALVVICIVLRPSRVYKPEGNTKRALTLKDILNGTFSYKTYFPNWISEQEYLHQSEDDNIVFYNIETRESYIILSNSTMKSVNATDYGLSPDRQFVYLESDYSKLWRYSYTATYYIYDLQNGEFVRGYELPRPIQYLCWSPVGSKLAYVYQNNIYLKQRPGDPPFQITYTGRENRIFNGIPDWVYEEEMLATKYALWWSPDGKFLAYVEFNDSDIPIIAYSYYGDGQYPRTINIPYPKAGAKNPVVRVFIVDTTYPHHVGPMEVPVPEMIASSDYYFSWLTWVSSERVCLQWLKRVQNVSVLSICDFREDWHAWECPKNQEHVEESRTGWAGGFFVSTPAFSQDATSYYKIFSDKDGYKHIHYIKDTVENAIQITSGKWEAIYIFRVTQDSLFYSSNEFEGYPGRRNIYRISIGNSPPSKKCVTCHLRKERCQYYTASFSYKAKYYALVCYGPGLPISTLHDGRTDQEIQVLEENKELENSLRNIQLPKVEIKKLKDGGLTFWYKMILPPQFDRSKKYPLLIQVYGGPCSQSVKSVFAVNWITYLASKEGIVIALVDGRGTAFQGDKFLHAVYRKLGVYEVEDQLTAVRKFIEMGFIDEERIAIWGWSYGGYVSSLALASGTGLFKCGIAVAPVSSWEYYASIYSERFMGLPTKDDNLEHYKNSTVMARAEYFRNVDYLLIHGTADDNVHFQNSAQIAKALVNAQVDFQAMWYSDQNHGISSGRSQNHLYTHMTHFLKQCFSLSD
modifications: biotin (EZ-link NHS-PEG4-biotin)
**Q.** Which results are given for B1?
**A.** Kd [1]: 14.2 nM; Kd [2]: 79.5 nM
